Experimental data from patent US20180009859A1, “PHARMACOLOGICAL MODULATORS OF GABAA RECEPTORS AND THEIR USE” (priority 2015, published 2018).
Like-named read-outs stand apart in the source and are kept apart here.

Experiments:
[1] = molecular target: GABAA receptors of hippocampal neurons; settings: reported values; cited from earlier work
hippocampal neurons [2] = assay: Calcium imaging of hippocampal neurons (Ca^2+ oscillations); assay type: cell-based, rat; settings: 0.3 μM muscimol alone, n=9
GABAA receptors in SPMs [3] = assay type: binding, rat; settings: for displacing ^125I-rMmTX2 (in words): SPMs; for Ki: read-out: equilibrium inhibition constant (Ki)
[4] = system: GABAA receptors of hippocampal neurons; assay type: cell-based, mouse
hippocampal neurons [5] = assay type: cell-based, mouse; settings: 100 μM PTX, n=5
[6] = molecular target: GABAA receptors in rat brain synaptic plasma membranes (SPMs) (rat); assay: competition with 125I-rMmTX2 for rat brain SPMs
[7] = molecular target: GABAA receptors of mouse hippocampal neurons (mouse); assay: cell-based or functional assay
[8] = molecular target: GABAA receptors in rat brain synaptic plasma membranes (SPMs) (rat); assay: competition with 40 nM [3H]muscimol for rat brain SPMs
[9] = molecular target: GABAA receptors in rat brain synaptic plasma membranes (SPMs) (rat); assay: competition with 40 nM [3H]muscimol for rat brain SPMs, nonlinear fit for an allosteric modulator
[10] = molecular target: GABAA receptors in rat brain synaptic plasma membranes (SPMs) (rat); assay: ratio of the kinetic constants, radioligand binding to rat brain SPMs
[11] = molecular target: GABAA receptors in rat brain synaptic plasma membranes (SPMs) (rat)
[12] = molecular target: GABAA receptors in rat brain synaptic plasma membranes (SPMs) (rat); remark: listed apart in the source
[13] = molecular target: GABAA receptors in rat brain synaptic plasma membranes (SPMs) (rat); remark: listed apart in the source
GABAA receptors in SPMs [14] = assay: [^3H]muscimol competition for binding to SPMs; design: species or system rat
α1β2γ2 GABAA receptor = α1β2γ2 GABAA receptor (Rattus norvegicus, UniProt P62813+P63138); assay type: cell-based
Sequence of α1β2γ2 GABAA receptor (P63138 25-474): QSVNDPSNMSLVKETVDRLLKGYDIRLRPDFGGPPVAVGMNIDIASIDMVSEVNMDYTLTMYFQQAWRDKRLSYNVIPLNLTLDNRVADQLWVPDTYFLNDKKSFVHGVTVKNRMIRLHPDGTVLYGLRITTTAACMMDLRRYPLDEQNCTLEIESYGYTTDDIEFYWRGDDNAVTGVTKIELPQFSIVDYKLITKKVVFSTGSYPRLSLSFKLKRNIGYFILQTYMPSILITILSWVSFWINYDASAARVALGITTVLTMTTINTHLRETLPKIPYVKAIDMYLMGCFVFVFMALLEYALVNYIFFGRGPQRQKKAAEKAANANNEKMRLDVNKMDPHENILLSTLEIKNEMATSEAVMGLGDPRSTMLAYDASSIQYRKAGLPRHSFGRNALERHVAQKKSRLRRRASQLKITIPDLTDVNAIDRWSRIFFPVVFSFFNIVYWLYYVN
Sequence of α1β2γ2 GABAA receptor (P62813 28-455): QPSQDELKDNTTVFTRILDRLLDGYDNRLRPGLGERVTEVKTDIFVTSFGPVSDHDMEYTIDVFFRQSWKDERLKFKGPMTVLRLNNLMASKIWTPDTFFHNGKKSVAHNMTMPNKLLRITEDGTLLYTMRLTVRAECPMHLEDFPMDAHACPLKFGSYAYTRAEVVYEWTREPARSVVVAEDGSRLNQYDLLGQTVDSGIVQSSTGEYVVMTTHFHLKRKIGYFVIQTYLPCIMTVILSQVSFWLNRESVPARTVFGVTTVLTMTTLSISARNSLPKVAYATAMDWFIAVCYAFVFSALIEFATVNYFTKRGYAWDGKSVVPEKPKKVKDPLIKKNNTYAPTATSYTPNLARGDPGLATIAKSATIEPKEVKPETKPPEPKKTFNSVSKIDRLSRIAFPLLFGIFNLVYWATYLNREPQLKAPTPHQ
Sequence of α1β2γ2 GABAA receptor (P18508 39-466, further chain): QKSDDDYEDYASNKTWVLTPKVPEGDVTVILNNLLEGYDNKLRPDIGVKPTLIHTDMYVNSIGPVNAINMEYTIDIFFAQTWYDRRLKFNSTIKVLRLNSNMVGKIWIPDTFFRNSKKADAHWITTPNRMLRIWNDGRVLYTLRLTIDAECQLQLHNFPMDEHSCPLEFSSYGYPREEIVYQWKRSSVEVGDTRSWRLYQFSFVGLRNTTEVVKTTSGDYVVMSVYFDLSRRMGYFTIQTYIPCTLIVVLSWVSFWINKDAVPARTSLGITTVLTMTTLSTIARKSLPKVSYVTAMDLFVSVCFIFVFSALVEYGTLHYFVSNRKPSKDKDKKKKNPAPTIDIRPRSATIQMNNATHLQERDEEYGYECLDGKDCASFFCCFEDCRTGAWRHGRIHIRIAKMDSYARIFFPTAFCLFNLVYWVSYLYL

mice [15] = settings: injection into mouse brain
mice [16] = settings: for activity when injected intravenously: mouse, in vivo
GABAA receptors in SPMs [17] = assay type: binding, rat
[18] = sigmoidal dose-response fit, read-out: EC50 for reducing ^125I-MmTX2 binding to SPMs
[19] = read-out: EC50 for reducing ^125I-MmTX2 binding to SPMs

In the case of `NCc1cc(=O)[nH]o1` [muscimol, reference compound], the EC50 [1] is given as 5400 to 24000 nM, the “frequency of Ca^2+ spikes compared to cells perfused with extracellular saline solution” value (hippocampal neurons [2]) is given as 98.0±4.8% and the “nH (Hill slope) for reducing ^125I-MmTX2 binding” value (GABAA receptors in SPMs [3]) is given as 1.08±0.24. For the same molecule, the EC50 (GABAA receptors in SPMs [3]; [18]) was 2100 nM, the IC50 ([4]; 100 nM rMmTX1, read-out: IC50 of muscimol for abolishing the potentiating effect of rMmTX1) was 1100 nM and the “nH coefficient of GABAA receptor current amplitude” value ([4]; muscimol alone) was 1.4. The EC50 ([4]; muscimol alone, Hill fit, read-out: EC50 of GABAA receptor current amplitude) was 4100 nM.

For picrotoxin [PTX], the action potential frequency (hippocampal neurons [5]) was “increases more dramatically when compared to sMmTX1”, the “nH for potentiating ^125I-MmTX2 binding capacity” value (GABAA receptors in SPMs [3]) was “+1.05±1.16” and the EC50 (GABAA receptors in SPMs [3]; read-out: EC50 for potentiating ^125I-MmTX2 binding capacity to SPMs) was 3700 nM.

For recombinant MmTX2 (rMmTX2) (peptide), the Ki [6] was 3.7 nM and the log Ki [6] was -8.44.

For `NCCCC(=O)O` [GABA, γ-aminobutyric acid], the “nH (Hill slope) for reducing ^125I-MmTX2 binding” value (GABAA receptors in SPMs [3]) was 0.99±0.18.

With `COc1cc2c3cc1Oc1cc(ccc1O)C[C@@H]1c4c(cc(OC)c(O)c4Oc4ccc(cc4)C[C@@H]3N(C)CC2)CC[N+]1(C)C` [d-tubocurarine] the “competition with ^125I-rMmTX2 for binding to SPMs” value (from here on “competition with ^125I-rMmTX2”) (GABAA receptors in SPMs [3]; ligand 10 μM) was “no competition is observed”.

In the case of `O=C(O)C1=CCNCC1` [isoguvacine], the “nH (Hill slope) for reducing ^125I-MmTX2 binding” value (GABAA receptors in SPMs [3]) is reported as 1.02±0.29 and the EC50 (GABAA receptors in SPMs [3]; [18]) is reported as 275000 nM.

With `NCC(=O)O` [glycine] the “competition with ^125I-rMmTX2” value (GABAA receptors in SPMs [3]) was “does not compete”.

With cardiotoxin [CTX] the “competition with ^125I-rMmTX2” value (GABAA receptors in SPMs [3]; ligand 10 μM) was “does not displace”.

recombinant MmTX1 (rMmTX1) (peptide) gave a Ki [6] of 3 nM, a log Ki [6] of -8.52 and a factor of increase of the GABAA current elicited by 5 µM muscimol, with 1 nM rMmTX1 [7] of 1.24 fold. For the same molecule, the factor of increase of the GABAA current elicited by 5 µM muscimol, with 10 nM rMmTX1 [7] was 1.22 fold, the percent of the total [^3H]muscimol binding capacity competed [8] was 40% and the Kd [9] was 4.9 nM.

In the case of `CN1[C@@H]2CC[C@H]1C[C@@H](OC(=O)C(CO)c1ccccc1)C2` (stereo partly shown) [atropine], the “competition with ^125I-rMmTX2” value (GABAA receptors in SPMs [3]) is reported as “does not compete”.

In the case of `CCCC(C)C1(CC)C(=O)NC(=O)NC1=O` (stereo not shown) [pentobarbital], the “nH (Hill slope) for reducing ^125I-MmTX2 binding” value (GABAA receptors in SPMs [3]) is reported as 0.98±0.07 and the EC50 (GABAA receptors in SPMs [3]; [18]) is reported as 4800 nM.

For `CN1C(=O)CN=C(c2ccccc2)c2cc(Cl)ccc21` [diazepam], the “nH (Hill slope) for reducing ^125I-MmTX2 binding” value (GABAA receptors in SPMs [3]) was −0.96±0.07 and the EC50 (GABAA receptors in SPMs [3]; [19]) was 4900 nM.

Work on ^125I-rMmTX2 (peptide) yielded a Kd [10] of 0.38 nM, a t1/2 of dissociation [11] of 7.97 min and a Bmax (fmol/mg of synaptic protein) [12] of 264. For the same molecule, the Kd [12] was 0.51 nM, the half time duration of dissociation [12] was 8 min and the koff [12] was 0.0014 s⁻¹. For the same molecule, the kon [12] was 3.7e+06 M⁻¹ s⁻¹, the Bmax (fmol/mg of SPM protein) [13] was 532 and the Kd [13] was 0.76 nM. The ratio of Bmax with/without PTX [13] was 2.01.

With `COc1ccc(-c2ccc(=N)n(CCCC(=O)O)n2)cc1` [gabazine] the “nH (Hill slope) for reducing ^125I-MmTX2 binding” value (GABAA receptors in SPMs [3]) was 1.00±0.07 and the EC50 (GABAA receptors in SPMs [3]; [19]) was 200 nM.

Work on `NCc1cc(=O)[nH]o1` [[^3H]muscimol, reference compound] yielded a Kd (GABAA receptors in SPMs [14]; SPMs, read-out: Kd of [^3H]muscimol (constrained fit parameter)) of 1.75 nM.

For α-bungarotoxin, the “competition with ^125I-rMmTX2” value (GABAA receptors in SPMs [3]) was “no competition is observed”.

For `N[C@@H](CCC(=O)O)C(=O)O` [glutamate], the “competition with ^125I-rMmTX2” value (GABAA receptors in SPMs [3]; ligand 0.1 mM) was “does not compete”.

In the case of “wild-type (WT) MmTX2, micrurotoxin2 purified from Micrurus mipartitus venom (peptide)”, the Ki [6] is reported as 0.8 nM and the log Ki [6] is reported as -9.09.

B1: sMmTX1-HRK: sMmTX1 mutated at 4His, 28Arg, 47Lys and acetylated at the N-terminus, SEQ ID NO: 21 (peptide)
chain: Ac-LTCHTCPFTTCPNSESCPGGQSICYQRRWEEHRGERIERRCVANCPKFGSHDTSLLCCTRDNCN
modifications: ends and bridges not checked
In the case of B1, the “effect on α1β2γ2 GABAA receptor currents” value (α1β2γ2 GABAA receptor; 100 nM muscimol + 100 nM toxin, −70 mV) is reported as “currents are potentiated and receptor desensitization tends to accelerate” and the “effect on α1β2γ2 GABAA receptor currents” value (α1β2γ2 GABAA receptor; 300 nM muscimol) is reported as “potentiating effect is diminished whereas desensitization effect is unaltered”.

B2: Fas 2: animal toxin that targets AChE (protein, UniProt P0C1Z0 1-61, looked up)
Fasciculin-2: TMCYSHTTTSRAILTNCGENSCYRKSRRHPPKMVLGRGCGCPPGDDNLEVKCCTSPDKCNY
modifications: ends and bridges not checked
In the case of B2, the “competition with ^125I-rMmTX2” value (GABAA receptors in SPMs [3]; ligand 10 μM) is reported as “does not compete”.

B3: rMmTX1: recombinant MmTX1 from a periplasmic expression system (protein)
peptide: LTCKTCPFTTCPNSESCPGGQSICYQRKWEEHRGERIERRCVANCPAFGSHDTSLLCCTRDNCN
modifications: ends and bridges not checked
For B3, the LD50 (mice [15]) was 0.027 mg/kg, the behavioral signs (mice [15]) was “reduced activity combined with severe seizures” and the “displacing ^125I-rMmTX2 (in words)” value (GABAA receptors in SPMs [3]) was “equally potent”. The Ki (GABAA receptors in SPMs [3]) was 3 nM, the “part of the total [^3H]muscimol binding capacity competed for” value (GABAA receptors in SPMs [14]; 40 nM [^3H]muscimol) was “about 40%” and the Kd (GABAA receptors in SPMs [14]; 40 nM [^3H]muscimol, allosteric modulator fit, read-out: Kd in competition with [^3H]muscimol) was 4.9 ± 0.2 nM. For the same molecule, the “activity when injected intravenously” value (mice [16]) was “inactive”, the “effect on GABAA receptors in the absence of an agonist” value [4] was “no effect” and the “increase of GABAA receptor-mediated currents” value [4] was “up to 7 fold”. The “Factor of GABAA current increase” value ([4]; 0.1 μM muscimol + 100 nM rMmTX1) was 7.9 ± 2.9 (n = 2), the “Cl^− current” value ([4]; 0.1 μM muscimol together with 100 nM rMmTX1) was 228±30 pA and the “muscimol concentration at the half-maximal potentiating effect of rMmTX1” value ([4]; 100 nM rMmTX1) was “about 1 μM”. For the same molecule, the “Factor of GABAA current increase” value ([4]; 0.3 μM muscimol + 100 nM rMmTX1) was 7.5 ± 1.2 (n = 4), the inward current ([4]; 0.3 μM muscimol together with 100 nM rMmTX1, neurons without response to muscimol alone) was 439±51 pA and the “Factor of GABAA current increase” value ([4]; 1.0 μM muscimol + 100 nM rMmTX1) was 1.9 ± 0.4 (n = 3). For the same molecule, the “Factor of GABAA current increase” value ([4]; 3 μM muscimol + 100 nM rMmTX1) was 1.4 ± 0.1 (n = 6), the “factor of GABAA current amplitude increase” value ([4]; 5 μM muscimol + 1 nM rMmTX1, n=9) was 1.24 ± 0.07 and the “factor of GABAA current amplitude increase” value ([4]; 5 μM muscimol + 10 nM rMmTX1, n=9) was 1.22 ± 0.03. The “factor of GABAA current amplitude increase” value ([4]; 5 μM muscimol + 100 nM rMmTX1, n=9) was 1.99 ± 0.28, the “factor of GABAA current amplitude increase” value ([4]; 5 μM muscimol + 300 nM rMmTX1, n=9) was 1.69 ± 0.25 and the “Factor of GABAA current increase” value ([4]; 30 μM muscimol + 100 nM rMmTX1) was 1.0 ± 0.1 (n = 4). The “Factor of GABAA current increase” value ([4]; 50 μM muscimol + 100 nM rMmTX1) was 1.0 ± 0.1 (n = 3) and the “toxin-induced potentiation at high muscimol” value ([4]; muscimol concentrations greater than 10 μM) was “do not observe a toxin-induced potentiation”.

B4: ^125I-rMmTX2: MmTX2 radioactively labeled by lacto-peroxidase-catalyzed iodination (protein)
peptide: LTCKTCPFTTCPNSESCPGGQSICYQRKWEEHHGERIERRCVANCPAFGSHDTSLLCCTRDNCN
modifications: ends and bridges not checked; also: 125I iodination (lactoperoxidase-catalysed), site not given here
With B4 the “second-order kinetic constant of association (k+1)” value (GABAA receptors in SPMs [17]; 1 to 4 nM ligand, SPMs) was 3.7±0.5×10^6 M^−1 s^−1, the “first-order kinetic constant (k−1)” value (GABAA receptors in SPMs [17]; dissociation after 1000-fold excess of unlabeled rMmTX2) was 0.0014 ± 0.0004 s⁻¹ and the “half time duration of dissociation” value (GABAA receptors in SPMs [17]; dissociation from SPMs) was about 8 min. For the same molecule, the Kd (GABAA receptors in SPMs [17]; in the presence of 1 mM PTX, read-out: Kd with PTX) was 0.76 ± 0.18 nM, the Kd (GABAA receptors in SPMs [17]; ratio of both kinetic constants, read-out: true dissociation value (Kd=k−1/k+1)) was 0.38 ± 0.05 nM and the Kd (GABAA receptors in SPMs [17]; read-out: Kd (saturation binding at equilibrium)) was 0.51 ± 0.09 nM.

B5: MmTX1 (protein, listed as Micrurus mipartitus)
chain: LTCKTCPFTTCPNSESCPGGQSICYQRKWEEHRGERIERRCVANCPAFGSHDTSLLCCTRDNCN
modifications: ends and bridges not checked
With B5 the “displacing ^125I-rMmTX2 (in words)” value (GABAA receptors in SPMs [3]) was “equally potent”.

B6: rMmTX2: recombinant MmTX2 from a periplasmic expression system (protein)
peptide: LTCKTCPFTTCPNSESCPGGQSICYQRKWEEHHGERIERRCVANCPAFGSHDTSLLCCTRDNCN
modifications: ends and bridges not checked
For B6, the LD50 (mice [15]) was 0.010 mg/kg, the behavioral signs (mice [15]) was “reduced activity combined with severe seizures” and the “displacing ^125I-rMmTX2 (in words)” value (GABAA receptors in SPMs [3]) was “equally potent”. The Ki (GABAA receptors in SPMs [3]) was 3.7 nM, the flaccid paralysis (mice [16]; injected intravenously into mice) was “no flaccid paralysis” and the “activity when injected intravenously” value (mice [16]) was “inactive”.
